The values that follow come from patent US5844093, “Anti-EGFR single-chain Fvs and anti-EGFR antibodies” (Merck Patent Gesellschaft mit Beschrankter Haftung, dated 1998).

The target in one experiment is ovalbumin (Gallus gallus (Chicken), UniProt P01012). Put plainly: ELISA, bacterial supernatants. (In general: An ELISA detects its analyte on a solid surface through an enzyme-linked reagent.)
A further experiment addresses BSA (Bos taurus (Bovine), UniProt P02769). Put plainly: ELISA, bacterial supernatants.
Experiment [1] deals with murine albumin (CBA strain) (murine, UniProt P07724). The experiment can be described thus: ELISA, bacterial supernatants.
Protocol: (§1) The scFvs were tested by ELISA for binding to plastic and to a panel of unrelated proteins (ovalbumin, hen egg lysozyme, cytochrome c, glyceraldehyde 3-phosphate dehydrogenase, CBA albumin, and BSA).
(§2) Supernatants containing scFvs were diluted in PBSM and added to the plates. Bound scFvs were detected using 9E10 antibody as described above. Supernatants were also tested for binding to a panel of unrelated proteins and plastic. ELISA plates were coated overnight at 100 µg/ml with ovalbumin, hen egg lysozyme, cytochrome c, glyceraldehyde 3-phosphate dehydrogenase, murine albumin (CBA strain), and BSA. Undiluted supernatants containing 2% milk powder were added in duplicate to the coated plates and bound scFvs detected as described above.
The target in the next experiment is hen egg lysozyme (hen, UniProt P00698). The experiment can be described thus: ELISA, bacterial supernatants.
Experiment [2] deals with EGFR on EGFR-bearing tumor cells (human, UniProt P00533). Put plainly: cell ELISA on A431 and MDA MB 468 cells, bacterial supernatants.
Protocol: The scFvs were tested by ELISA for binding to three tumor cell lines. […] Cell line SK-MEL-23 is a ganglioside-bearing melanoma cell line and was included as a negative control.
Cells were grown to confluency in poly-D-lysine-treated 96 well tissue culture trays (Nunc). Cells were washed with DMEM and blocked at 37° C. for 2 h with PBS containing 2.5% BSA. After aspiration, supernatants were added to each well together with an equal volume of 2xYT media containing 4% milk powder and incubated at 40C for 1 h. Bound scFvs were detected as described above.
The next experiment concerns the target purified EGFR (human, UniProt P00533). The experiment can be described thus: ELISA, purified EGFR, bacterial supernatants.

Numbering of substitutions follows the chain as printed.

Protocol for BSA: as §1, §2
Protocol for hen egg lysozyme: as §1, §2
Protocol for ovalbumin: as §1, §2
Protocol for purified EGFR: Binding of scFvs to EGFR. The concentrations of scFvs in bacterial supernatants were estimated and the scFvs tested by ELISA for binding to purified EGFR.
Antigen-binding ELISAs were carried out with EGFR-coated plates (2.5 µg/ml). Supernatants containing scFvs were diluted in PBSM and added to the plates. Bound scFvs were detected using 9E10 antibody as described above. Supernatants were also tested for binding to a panel of unrelated proteins and plastic. ELISA plates were coated overnight at 100 µg/ml with ovalbumin, hen egg lysozyme, cytochrome c, glyceraldehyde 3-phosphate dehydrogenase, murine albumin (CBA strain), and BSA. Undiluted supernatants containing 2% milk powder were added in duplicate to the coated plates and bound scFvs detected as described above.

B1: scFv No. S4 2D (scFv, V domains shown)
VH: EVKLQQSGPELVKPGASVKMSCKASGYAFISFVMHWVKQKPGQGLEWIGFINPYNDGTKYNEKFKDKATLTSDKSSSTAYMELSSLTSEDSAVYYCASGDYDRAMDYWGQGTTVTVSS
VL: DIELTQSPTTMAASPGEKITITCSASSSISSNYLHWYQQKPGFSPKLLIYRTSNLASGVPARFSGSGSGTSYSLTIGTMEAEDVATYYCQQGSSIPRTFGGGTKLEIKR
As to B1, the binding result (with ovalbumin; with BSA; in experiment [1]; in the experiment with hen egg lysozyme) was “no binding” throughout.

B2: scFv No. L2 12B (scFv, V domains shown)
VH: QVQLQESGPELVKPGALVKISCKASGYTFTSYWMHWVKQRPGQGLEWIGEIDPSDSYTNYNQKFKGKATLTVDKSSNTAYMQLSSLTSEDSAVYYCARSDYGSSHFDYWGQGTTVTVSS
VL: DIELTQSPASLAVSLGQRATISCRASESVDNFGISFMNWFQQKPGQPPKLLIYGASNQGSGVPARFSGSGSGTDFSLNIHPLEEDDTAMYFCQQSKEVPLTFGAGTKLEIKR
B2: the binding result was “binds” in experiment [2]; “no binding” with ovalbumin; “no binding” with BSA; “no binding” in experiment [1]; “no binding” with hen egg lysozyme; “binds” in the experiment with purified EGFR.

B3: scFv No. L3 11D (scFv, V domains shown)
VH: B2 VH with Q1E, E6Q, P9A, L17S, I20L, N77S
VL: not shown
With B3, the binding result (in the experiment with ovalbumin; with BSA; in experiment [1]; in the experiment with hen egg lysozyme) was “no binding” each time.

B4: scFv No. L2 11C (scFv, V domains shown)
VH: QVQLQESGPELVRPGASVKMSCKASGYTFTTYWIHWMKQRPGQGLQWIGMIDPSNSETRLNQNFRDKATLSVDKSSNKAYMQLSSLTSEDSAIYYCARWDYGSGHFDYWGQGTTVTVSS
VL: DIELTQSPASLAASVGETVTITCRASENIYYSLAWYQQKQGKSPQLLIYSASALEDGVPSRFSGSGSGTQYSLKINNMQPEDTATYFCKQTYDVPWTFGGGTKLEIKR
Regarding B4, the binding result (with ovalbumin; in the experiment with BSA; in experiment [1]; with hen egg lysozyme) was “no binding” throughout.
